Changes are numbered by the printed parent chain.
B1: anti-human SAS1B murine monoclonal antibody SB1 (antibody, IgG2a, V domains shown)
VH: EVQLQQSGPELVKPGSSVKISCKASGYTFTDYNMDWVKQSHGKSLEWIGAINPNNGGTSYNQKFKGKATLTVDKSSSTAYMELRSLTSEDSAVYYCATNEYWGQGTTLTVSS
VL: NIVMTQSPKSMSMSVGERVTLSCKASENVGTYVSWYQQKPEQSPKLLIYGASNRYTGVPDRFTGSGSATDFTLTISSVQAEDLADYHCGQSYSYPWTFGGGTKLEIK
notes: also called SB1 mAb
B2: anti-human SAS1B murine monoclonal antibody SB4 (antibody, IgG2a, V domains shown)
VH: EVQLQQSGPELVKPGSSVKISCKPSGYTFTDYNMVWMKQSHGKSLEWIGAINPNNGGTTYNQKFKGKATLTVDKSSSTAYMELRSLTSEDSAVYYCAPNWDWFAYWGQGTLVTVSA
VL: DVLMTQTPLSLPVSLGDQASISCRSSQSILHSNGNTYLEWYLQKPGQSPKLLIYKVSNRFSGVPDRFSGSGSGTDFTLKISRVEAEDLGVYYCFQGSHVPFTFGSGTKLEIK
notes: Mouse hybridoma antibody, isotype IgG2a-k; also called SB4 mAb
B3: anti-human SAS1B murine monoclonal antibody SB3 (antibody, IgG2b, V domains shown)
VH: B2 VH with P24A, M37V, I51V, T59S, A97V
VL: B2 VL with I29L, L30V, K50N
notes: also called SB3 mAb
B4: anti-human SAS1B murine monoclonal antibody SB6 (antibody, IgG2b, V domains shown)
VH: B2 VH
VL: B2 VL with T7I
B5: anti-human SAS1B murine monoclonal antibody SB5 (antibody, IgG2b, V domains shown)
VH: B2 VH
VL: B2 VL with T7I
notes: Mouse hybridoma antibody, isotype IgG2b-k; also called SB5 mAb
B6: anti-human SAS1B murine monoclonal antibody SB7 (antibody, IgG2b, V domains shown)
VH: B2 VH
VL: B2 VL with T7I
B7: anti-human SAS1B murine monoclonal antibody SB2 (antibody, IgG2b, V domains shown)
VH: B2 VH with P24A, M37V, I51V, T59S, A97V
VL: B2 VL with I29L, L30V, K50N
notes: also called SB2 mAb

Columns and labels:
[1] = molecular target: T1, SAS1B C-terminus extracellular domain (aa 160-431) (human, UniProt Q6HA08 160-431); test: western blot (FIG. 22)
T1 construct: also called C-term extracellular domain
T1 sequence: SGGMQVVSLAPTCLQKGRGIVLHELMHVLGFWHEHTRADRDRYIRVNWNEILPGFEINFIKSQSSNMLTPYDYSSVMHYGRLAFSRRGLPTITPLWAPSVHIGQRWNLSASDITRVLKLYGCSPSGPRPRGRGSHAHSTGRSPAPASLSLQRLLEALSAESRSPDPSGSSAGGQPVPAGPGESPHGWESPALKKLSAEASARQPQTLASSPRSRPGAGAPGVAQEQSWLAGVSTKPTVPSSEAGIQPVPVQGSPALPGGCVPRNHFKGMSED

[2] = molecular target: T2, SAS1B extracellular domain (aa 164-431) polypeptide (human, UniProt Q6HA08 164-431); test: western blot, mammalian cell-expressed recombinant SAS1B
T2 construct: mammalian cell-expressed recombinant; also called truncated SAS1B
T2 sequence: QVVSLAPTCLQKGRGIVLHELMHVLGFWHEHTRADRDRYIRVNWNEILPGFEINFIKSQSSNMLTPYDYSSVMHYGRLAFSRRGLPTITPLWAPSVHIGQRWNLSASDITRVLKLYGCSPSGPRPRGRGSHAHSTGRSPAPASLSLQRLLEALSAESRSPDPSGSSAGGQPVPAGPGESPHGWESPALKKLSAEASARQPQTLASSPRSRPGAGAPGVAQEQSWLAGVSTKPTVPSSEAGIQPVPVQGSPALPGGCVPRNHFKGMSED
Procedure: SAS1B monoclonal antibodies were analyzed with mammalian cell-expressed recombinant SAS1B by western blotting.

[3] = molecular target: T3, SAS1B on the surface of live cancer cells (human, UniProt Q6HA08 24-431); test: cell-based or functional assay
T3 sequence: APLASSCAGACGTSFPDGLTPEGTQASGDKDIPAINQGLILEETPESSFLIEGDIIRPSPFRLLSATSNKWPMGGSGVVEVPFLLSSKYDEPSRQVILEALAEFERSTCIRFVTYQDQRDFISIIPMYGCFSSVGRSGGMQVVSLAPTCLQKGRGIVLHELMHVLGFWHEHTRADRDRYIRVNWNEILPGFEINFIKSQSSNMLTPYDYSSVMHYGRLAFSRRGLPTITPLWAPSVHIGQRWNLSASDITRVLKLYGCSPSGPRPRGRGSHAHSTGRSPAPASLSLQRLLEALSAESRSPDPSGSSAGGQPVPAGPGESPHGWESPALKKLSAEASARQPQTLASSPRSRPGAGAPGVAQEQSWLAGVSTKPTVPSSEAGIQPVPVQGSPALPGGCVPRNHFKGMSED

[4] = molecular target: T4, mouse SAS1B (mouse, UniProt Q6HA09 24-435, limits assumed); test: summary table (Table 1)
T4 sequence (looked up): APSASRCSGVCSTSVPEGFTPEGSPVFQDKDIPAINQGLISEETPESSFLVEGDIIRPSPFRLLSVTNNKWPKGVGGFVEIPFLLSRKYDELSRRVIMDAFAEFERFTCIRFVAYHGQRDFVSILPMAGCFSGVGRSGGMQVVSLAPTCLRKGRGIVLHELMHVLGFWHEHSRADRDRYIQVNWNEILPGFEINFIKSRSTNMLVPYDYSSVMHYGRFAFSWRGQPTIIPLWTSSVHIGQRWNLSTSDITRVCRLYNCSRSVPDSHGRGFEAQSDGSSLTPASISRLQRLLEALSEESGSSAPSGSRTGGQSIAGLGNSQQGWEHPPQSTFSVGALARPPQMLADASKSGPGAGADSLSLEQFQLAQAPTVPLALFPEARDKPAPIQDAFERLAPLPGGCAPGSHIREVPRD

Row | Binder | binding result [1] | binding result [2] | percent of cells killed at 0.1 nM mAb, ADC assay with anti-mouse Fab-cleavable-Duocarmycin, pancreatic cancer cells 366, ~72 h, cellular ATP [3] | percent of cells killed at 1 nM mAb, ADC assay with 15 nM anti-mouse Fab-cleavable-Duocarmycin, MPanc96 pancreatic cancer cells, ~72 h, cellular ATP [3] | percent of cells killed at 1 nM mAb, ADC assay with anti-mouse Fab-cleavable-Duocarmycin, pancreatic cancer cells 366, ~72 h, cellular ATP [3] | binding result [4] | viability at 0.01 nM mAb, ADC assay with Fab-anti-mouse IgG Fc conjugated to Duocarmycin DM (cleavable linker), uterine cancer cells [3]
1 | B1 | no binding | no binding |  |  |  |  | 
2 | B2 | no binding | no binding | 33% | 64% | 77% | no binding | 
3 | B3 | no binding | no binding |  |  |  | no binding | 
4 | B4 | no binding | no binding |  |  |  | no binding | 
5 | B5 | no binding | no binding | 49% | 57% | 76% | no binding | 87%
6 | B6 | no binding | no binding |  |  |  | no binding | 
7 | B7 | no binding | no binding | 59% | 80% | 88% | no binding | 66%

— patent publication US20190194345A1 (UNIVERSITY OF VIRGINIA PATENT FOUNDATION, published 2019)
